Experimental data reported in US20070099283.

Target: T1, propeptide (prosequence) of proteinase K from Tritirachium album Limber
T1 chain: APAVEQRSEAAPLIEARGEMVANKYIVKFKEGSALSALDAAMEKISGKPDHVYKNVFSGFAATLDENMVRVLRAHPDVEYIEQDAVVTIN

B1: mature recombinant proteinase K from Tritirachium album Limber (processed, natured from pro-proteinase K) (protein)
chain: AAQTNAPWGLARISSTSPGTSTYYYDESAGQGSCVYVIDTGIEASHPEFEGRAQMVKTYYYSSRDGNGHGTHCAGTVGSRTYGVAKKTQLFGVKVLDDNGSGQYSTIIAGMDFVASDKNNRNCPKGVVASLSLGGGYSSSVNSAAARLQSSGVMVAVAAGNNNADARNYSPASEPSVCTVGASDRYDRRSSFSNYGSVLDIFGPGTSILSTWIGGSTRSISGTSMATPHVAGLAAYLMTLGKTTAASACRYIADTANKGDLSNIPFGTVNLLAYNNYQA
proteinase K activity (chromogenic substrate test) of gel filtration fractions: no activity is found without prior activation
